Patent US7794719 (dated 2010)
Where two headings read alike, the source gives them in different places.

Tests used:
Experiment in all cases: SPR
Aβ1-42 fibers [1] = biological target: Aβ1-42 fibers (human)
Aβ1-40 fibers [2] = biological target: Aβ1-40 fibers (human)
Aβ1-42 fibers [3] = biological target: Aβ1-42 fibers (human); remark: listed apart in the source
Aβ1-40 fibers [4] = biological target: Aβ1-40 fibers (human); remark: listed apart in the source

| Binder | Kd (Aβ1-42 fibers [1]) [nM] | Kd (Aβ1-40 fibers [2]) [nM] | Kd (Aβ1-42 fibers [3]) [nM] | Kd (Aβ1-40 fibers [4]) [nM] |
| --- | --- | --- | --- | --- |
| MS-R 7.4H2 x 7.12L2 Fab (antibody, V domains shown) VH: QLVESGGGLVQPGGSLRLSCAASGFTFSSYAMSWVRQAPGKGLEWVSAINYNGARIYYADSVKGRFTISRDNSKNTLYLQMNSLRAEDTAVYYCARGKGNTHKPYGYVRYFDVWGQGTLVTVSS VL: DIVLTQSPATLSLSPGERATLSCRASQRFFYKYLAWYQQKPGQAPRLLISGSSNRATGVPARFSGSGSGTDFTLTISSLEPEDFAVYYCLQLYNIPNTFGQGTKVEIKR | 1.8 | 1.4 | – | – |
| MS-R 7.9H2 x 7.12L1 Fab (antibody, V domains shown) VH: QLVESGGGLVQPGGSLRLSCAASGFTFSSYAMSWVRQAPGKGLEWVSAINADGNRKYYADSVKGRFTISRDNSKNTLYLQMNSLRAEDTAVYYCARGKGNTHKPYGYVRYFDVWGQGTLVTVSS VL: DIVLTQSPATLSLSPGERATLSCRASQYVFRRYLAWYQQKPGQAPRLLISGSSNRATGVPARFSGSGSGTDFTLTISSLEPEDFAVYYCLQLYNIPNTFGQGTKVEIKR | 1.1 | 1.2 | – | – |
| MS-R 7.9H2 x 7.12L2(L1+2) Fab (antibody, V domains shown) VH: QLVESGGGLVQPGGSLRLSCAASGFTFSSYAMSWVRQAPGKGLEWVSAINADGNRKYYADSVKGRFTISRDNSKNTLYLQMNSLRAEDTAVYYCARGKGNTHKPYGYVRYFDVWGQGTLVTVSS VL: DIVLTQSPATLSLSPGERATLSCRASQRFFYKYLAWYQQKPGQAPRLLISGSSNRATGVPARFSGSGSGTDFTLTISSLEPEDFAVYYCLQLYNIPNTFGQGTKVEIKR | 0.4 | 0.4 | – | – |
| MS-R 8.2L1 Fab (antibody, V domains shown) VH: not shown VL: DIVLTQSPATLSLSPGERATLSCRASQRVSGRYLAWYQQKPGQAPRLLIYGASSRATGVPARFSGSGSGTDFTLTISSLEPEDFATYYCQQLSSYPPTFGQGTKVEIKR | – | – | 3.7 | 4.8 |
| MS-R 3.6H5 x 3.6L1 Fab (antibody, V domains shown) VH: QLVESGGGLVQPGGSLRLSCAASGFTFSSYAMSWVRQAPGKGLEWVSAISESGKTKYYADSVKGRFTISRDNSKNTLYLQMNSLRAEDTAVYYCARLTHYARYYRYFDVWGQGTLVTVSS VL: DIVLTQSPATLSLSPGERATLSCRASQFIQRFYLAWYQQKPGQAPRLLIYGASSRATGVPARFSGSGSGTDFTLTISSLEPEDFAVYYCQQTYNYPPTFGQGTKVEIKR | 1.04 | 1.25 | – | – |
| MS-R 7.11H1 x 7.2L1 Fab (antibody, V domains shown) VH: QLVESGGGLVQPGGSLRLSCAASGFTFSSYAMSWVRQAPGKGLEWVSGINAAGFRTYYADSVKGRFTISRDNSKNTLYLQMNSLRAEDTAVYYCARGKGNTHKPYGYVRYFDVWGQGTLVTVSS VL: DIVLTQSPATLSLSPGERATLSCRASQYVDRTYLAWYQQKPGQAPRLLIYGASSRATGVPARFSGSGSGTDFTLTISSLEPEDFATYYCQQIYSFPHTFGQGTKVEIKR | 1.39 | 1.75 | – | – |
| MS-R 3.4H1 x 3.4L9 Fab (antibody, V domains shown) VH: QLVESGGGLVQPGGSLRLSCAASGFTFSSYAMSWVRQAPGKGLEWVSAISETSIRKYYADSVKGRFTISRDNSKNTLYLQMNSLRAEDTAVYYCARLTHYARYYRYFDVWGQGTLVTVSS VL: DIVLTQSPATLSLSPGERATLSCRASRRIHVYYLAWYQQKPGQAPRLLIYGASSRATGVPARFSGSGSGTDFTLTISSLEPEDFATYYCQQTYDYPPTFGQGTKVEIKR | 0.5 | 0.25 | – | – |
| MS-R 7.4H2 x 7.2L1 Fab (antibody, V domains shown) VH: QLVESGGGLVQPGGSLRLSCAASGFTFSSYAMSWVRQAPGKGLEWVSAINYNGARIYYADSVKGRFTISRDNSKNTLYLQMNSLRAEDTAVYYCARGKGNTHKPYGYVRYFDVWGQGTLVTVSS VL: DIVLTQSPATLSLSPGERATLSCRASQYVDRTYLAWYQQKPGQAPRLLIYGASSRATGVPARFSGSGSGTDFTLTISSLEPEDFATYYCQQIYSFPHTFGQGTKVEIKR | 1.4 | 1.4 | – | – |
| MS-R 7 Fab (antibody, V domains shown) VH: not shown VL: DIVLTQSPATLSLSPGERATLSCRASQSVSSSYLAWYQQKPGQAPRLLIYGASSRATGVPARFSGSGSGTDFTLTISSLEPEDFATYYCFQLYSDPFTFGQGTKVEIKR | – | – | 1710 | 1100 |
| MS-R 7.11H2 x 7.9L1(L1) Fab (antibody, V domains shown) VH: QLVESGGGLVQPGGSLRLSCAASGFTFSSYAMSWVRQAPGKGLEWVSAINANGYKKYYADSVKGRFTISRDNSKNTLYLQMNSLRAEDTAVYYCARGKGNTHKPYGYVRYFDVWGQGTLVTVSS VL: DIVLTQSPATLSLSPGERATLSCRASQRLSPRYLAWYQQKPGQAPRLLIYGASSRATGVPARFSGSGSGTDFTLTISSLEPEDFATYYCLQIYNMPITFGQGTKVEIKR | 1 | 0.1 | – | – |
| MS-R 7.2H2 x 7.2L1 Fab (antibody, V domains shown) VH: QLVESGGGLVQPGGSLRLSCAASGFTFSSYAMSWVRQAPGKGLEWVSAINGTGMKKYYADSVKGRFTISRDNSKNTLYLQMNSLRAEDTAVYYCARGKGNTHKPYGYVRYFDVWGQGTLVTVSS VL: DIVLTQSPATLSLSPGERATLSCRASQYVDRTYLAWYQQKPGQAPRLLIYGASSRATGVPARFSGSGSGTDFTLTISSLEPEDFATYYCQQIYSFPHTFGQGTKVEIKR | 1.43 | 1.29 | – | – |
| MS-R 7.9H2 x 7.2L1(L1) Fab (antibody, V domains shown) VH: QLVESGGGLVQPGGSLRLSCAASGFTFSSYAMSWVRQAPGKGLEWVSAINADGNRKYYADSVKGRFTISRDNSKNTLYLQMNSLRAEDTAVYYCARGKGNTHKPYGYVRYFDVWGQGTLVTVSS VL: DIVLTQSPATLSLSPGERATLSCRASQYVDRTYLAWYQQKPGQAPRLLIYGASSRATGVPARFSGSGSGTDFTLTISSLEPEDFATYYCQQIYSFPHTFGQGTKVEIKR | 1.4 | 1.4 | – | – |

More lines, now with the values ahead:

| Kd (Aβ1-42 fibers [1]) [nM] | Kd (Aβ1-40 fibers [2]) [nM] | Kd (Aβ1-42 fibers [3]) [nM] | Kd (Aβ1-40 fibers [4]) [nM] | Binder |
| --- | --- | --- | --- | --- |
| 0.47 | 0.41 | – | – | MS-R 7.11H1 x 7.11L1 Fab (antibody, V domains shown) VH: QLVESGGGLVQPGGSLRLSCAASGFTFSSYAMSWVRQAPGKGLEWVSGINAAGFRTYYADSVKGRFTISRDNSKNTLYLQMNSLRAEDTAVYYCARGKGNTHKPYGYVRYFDVWGQGTLVTVSS VL: DIVLTQSPATLSLSPGERATLSCRASQRILRIYLAWYQQKPGQAPRLLIYGASSRATGVPARFSGSGSGTDFTLTISSLEPEDFATYYCQQVYSPPHTFGQGTKVEIKR |
| 0.93 | 1.05 | – | – | MS-R 3.4H3 x 3.4L9 Fab (antibody, V domains shown) VH: QLVESGGGLVQPGGSLRLSCAASGFTFSSYAMSWVRQAPGKGLEWVSVISQTGRKIYYADSVKGRFTISRDNSKNTLYLQMNSLRAEDTAVYYCARLTHYARYYRYFDVWGQGTLVTVSS VL: DIVLTQSPATLSLSPGERATLSCRASRRIHVYYLAWYQQKPGQAPRLLIYGASSRATGVPARFSGSGSGTDFTLTISSLEPEDFATYYCQQTYDYPPTFGQGTKVEIKR |
| 3.51 | 2.66 | – | – | MS-R 3.4H7 x 3.4L9 Fab (antibody, V domains shown) VH: QLVESGGGLVQPGGSLRLSCAASGFTFSSYAMSWVRQAPGKGLEWVSVISETGKNIYYADSVKGRFTISRDNSKNTLYLQMNSLRAEDTAVYYCARLTHYARYYRYFDVWGQGTLVTVSS VL: DIVLTQSPATLSLSPGERATLSCRASRRIHVYYLAWYQQKPGQAPRLLIYGASSRATGVPARFSGSGSGTDFTLTISSLEPEDFATYYCQQTYDYPPTFGQGTKVEIKR |
| 2.97 | 2.16 | – | – | MS-R 3.3H1 x 3.4L9 Fab (antibody, V domains shown) VH: QLVESGGGLVQPGGSLRLSCAASGFTFSSYAMSWVRQAPGKGLEWVSVISEKSRFIYYADSVKGRFTISRDNSKNTLYLQMNSLRAEDTAVYYCARLTHYARYYRYFDVWGQGTLVTVSS VL: DIVLTQSPATLSLSPGERATLSCRASRRIHVYYLAWYQQKPGQAPRLLIYGASSRATGVPARFSGSGSGTDFTLTISSLEPEDFATYYCQQTYDYPPTFGQGTKVEIKR |
| 1.6 | 1.3 | – | – | MS-R 8.1H1 x 8.2L1 Fab (antibody, V domains shown) VH: QLVESGGGLVQPGGSLRLSCAASGFTFSSYAMSWVRQAPGKGLEWVSAISRSGSNIYYADSVKGRFTISRDNSKNTLYLQMNSLRAEDTAVYYCARLLSRGYNGYYHKFDVWGQGTLVTVSS VL: DIVLTQSPATLSLSPGERATLSCRASQRVSGRYLAWYQQKPGQAPRLLIYGASSRATGVPARFSGSGSGTDFTLTISSLEPEDFATYYCQQLSSYPPTFGQGTKVEIKR |
| 0.84 | 1.26 | – | – | MS-R 3.6H5 x 3.6L2 Fab (antibody, V domains shown) VH: QLVESGGGLVQPGGSLRLSCAASGFTFSSYAMSWVRQAPGKGLEWVSAISESGKTKYYADSVKGRFTISRDNSKNTLYLQMNSLRAEDTAVYYCARLTHYARYYRYFDVWGQGTLVTVSS VL: DIVLTQSPATLSLSPGERATLSCRASQFLSRYYLAWYQQKPGQAPRLLIYGASSRATGVPARFSGSGSGTDFTLTISSLEPEDFAVYYCQQTYNYPPTFGQGTKVEIKR |
| 1.23 | 1.19 | – | – | MS-R 3.4H7 x 3.4L7 Fab (antibody, V domains shown) VH: QLVESGGGLVQPGGSLRLSCAASGFTFSSYAMSWVRQAPGKGLEWVSVISETGKNIYYADSVKGRFTISRDNSKNTLYLQMNSLRAEDTAVYYCARLTHYARYYRYFDVWGQGTLVTVSS VL: DIVLTQSPATLSLSPGERATLSCRASQRLGRLYLAWYQQKPGQAPRLLIYGASSRATGVPARFSGSGSGTDFTLTISSLEPEDFATYYCQQTYDYPPTFGQGTKVEIKR |
| 0.6 | 1 | – | – | MS-R 7.11H2 x 7.2L1(L1) Fab (antibody, V domains shown) VH: QLVESGGGLVQPGGSLRLSCAASGFTFSSYAMSWVRQAPGKGLEWVSAINANGYKKYYADSVKGRFTISRDNSKNTLYLQMNSLRAEDTAVYYCARGKGNTHKPYGYVRYFDVWGQGTLVTVSS VL: DIVLTQSPATLSLSPGERATLSCRASQYVDRTYLAWYQQKPGQAPRLLIYGASSRATGVPARFSGSGSGTDFTLTISSLEPEDFATYYCQQIYSFPHTFGQGTKVEIKR |
| 0.92 | 0.92 | – | – | MS-R 3.4H3 x 3.4L7 Fab (antibody, V domains shown) VH: QLVESGGGLVQPGGSLRLSCAASGFTFSSYAMSWVRQAPGKGLEWVSVISQTGRKIYYADSVKGRFTISRDNSKNTLYLQMNSLRAEDTAVYYCARLTHYARYYRYFDVWGQGTLVTVSS VL: DIVLTQSPATLSLSPGERATLSCRASQRLGRLYLAWYQQKPGQAPRLLIYGASSRATGVPARFSGSGSGTDFTLTISSLEPEDFATYYCQQTYDYPPTFGQGTKVEIKR |
